Patent publication CN110903391A (DONGDA BIOTECHNOLOGY SUZHOU CO LTD, dated 2020)
Residue numbers refer to the chain shown, from its start. Values belong to the binder of their own block, whether it stands above or below them.

Tests used:
PD-L1 on 293T-PD-L1细胞 [1] = molecular target: T1, PD-L1 on 293T-PD-L1细胞 (human, UniProt Q9NZQ7 19-290); experiment: FACS on 293T-PD-L1 cells
T1 construct: whole, on cells; Construct not described

PD-L1-ECD-hFc [2] = molecular target: T2, PD-L1-ECD-hFc (human, UniProt Q9NZQ7 19-238); experiment: ELISA, PD-L1-ECD-hFc coated
T2 construct: extracellular domain; Coated on the ELISA plate; also called PD-L1-hFc; PD-L1-hFc蛋白; not shown: hFc: human Fc
T2 sequence (Q9NZQ7 19-238): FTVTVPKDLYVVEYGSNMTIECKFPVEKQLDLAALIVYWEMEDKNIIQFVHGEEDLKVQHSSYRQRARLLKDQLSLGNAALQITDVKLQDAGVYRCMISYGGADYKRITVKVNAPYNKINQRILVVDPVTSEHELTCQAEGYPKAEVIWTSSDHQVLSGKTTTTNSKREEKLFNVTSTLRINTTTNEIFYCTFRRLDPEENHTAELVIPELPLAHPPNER

PD-L1 on 293T-PD-L1细胞 [3] = molecular target: T1, PD-L1 on 293T-PD-L1细胞; experiment: competition FACS on 293T-PD-L1 cells, competitor PD-1-biotin
PD-L1-ECD-hFc [4] = molecular target: T2, PD-L1-ECD-hFc; experiment: competition ELISA, PD-L1-ECD-hFc coated, competitor PD-1-biotin
带组氨酸标签的PD-L1抗原 = 带组氨酸标签的PD-L1抗原 (UniProt Q9NZQ7); experiment: Biacore 3000 SPR, antibody captured by anti-human IgG on CM5, PD-L1-His as analyte

T1 sequence (Q9NZQ7 19-290): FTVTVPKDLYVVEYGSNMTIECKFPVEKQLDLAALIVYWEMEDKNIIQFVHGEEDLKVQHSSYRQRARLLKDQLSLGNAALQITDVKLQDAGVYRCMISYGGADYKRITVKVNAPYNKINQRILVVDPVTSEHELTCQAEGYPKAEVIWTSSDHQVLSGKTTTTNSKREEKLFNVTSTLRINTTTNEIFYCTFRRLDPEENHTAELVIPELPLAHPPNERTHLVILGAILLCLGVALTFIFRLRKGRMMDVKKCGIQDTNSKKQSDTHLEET

EC50 (PD-L1 on 293T-PD-L1细胞 [1]): 0.0412 µg/mL | EC50 (PD-L1-ECD-hFc [2]): 0.00448 µg/mL | IC50 (PD-L1 on 293T-PD-L1细胞 [3]): 0.0365 µg/mL | IC50 (PD-L1-ECD-hFc [4]): 0.108 µg/mL
B1: 6F9B1A6人源化完整抗体 (antibody, human IgG1, kappa, V domains shown)
VH: QVQLVQSGAEVKKPGSSVKVSCKASGYTFIGYTVHWVRQAPGQGLEWIGWFYPGSGSIKYNEKFKDRATLTADKSTSTVYMELSSLRSEDTAVYYCARHGTGKFNYFDVWGQGTTVTVSS
VL: DIQLTQSPSFLSASVGDRVTITCRASSTVSYMHWYQQKPGKAPKPWIYATFNLASGVPSRFSGSGSGTEYTLTISSLQPEDFATYYCQPWSSYPLTFGQGTKLEIKR
notes: Humanized IgG1; expressed in 293 cells; also called hu6F9B1A6; 人源化的6F9B1A6抗体

fold increase of affinity against humanized 6C8D8 (带组氨酸标签的PD-L1抗原): 9.25 倍 (fold)
B2: 亲和力成熟的人源化6C8D8抗体(重链Seq ID 43, 轻链Seq ID 44) (antibody, V domains shown)
VH: QITLKESGPTLVKPTQTLTLTCTVSGFSLTSYDISWIRQPPGKALEWLGVIWTGGGTTYNSAFMSRLTITKDNSKNQVVLTMTNMDPVDTATYYCVRGRDWDFDYWGQGTLVTVSS
VL: EIVLTQSPDFQSVTPKEKVTITCRASQSIGTSIHWYQQKPDQSPKLLIKYVSESISGVPSRFSGSGSGTDFTLTINSLEAEDAATYYCQQSNSWPFTFGQGTKLEIK

EC50 (PD-L1 on 293T-PD-L1细胞 [1]): 0.0413 µg/mL | EC50 (PD-L1-ECD-hFc [2]): 0.00224 µg/mL | IC50 (PD-L1 on 293T-PD-L1细胞 [3]): 0.0437 µg/mL | IC50 (PD-L1-ECD-hFc [4]): 0.139 µg/mL
B3: 6C8D8人源化完整抗体 (antibody, human IgG1, kappa, V domains shown)
VH: B2 VH with T58N
VL: EIVLTQSPDFQSVTPKEKVTITCRASQSIGTSIHWYQQKPDQSPKLLIKYASESISGVPSRFSGSGSGTDFTLTINSLEAEDAATYYCQQSNSWPFTFGQGTKLEIKR
notes: Humanized IgG1; expressed in 293 cells; also called hu6C8D8; 人源化的6C8D8抗体

fold increase of affinity against humanized 10E9C7G2 (带组氨酸标签的PD-L1抗原): 7.2 倍 (fold)
B4: 亲和力成熟的人源化10E9C7G2抗体(重链Seq ID 48, 轻链Seq ID 50) (antibody, V domains shown)
VH: QVQLQQSGPGLVKPSQTLSLTCAISGDSVSSGYWNWIRQSPSRGLEYMGYISYTGSTYYSLSLKSRITINRDTSKNQYSLQLNSVTPEDTAVYYCARGDYGSDWPPWFAYWGQGTTVTVSS
VL: DIQMTQSPSSLSASVGDRVTITCSASISISSNSLQWYQQKPGKAPKLLIYRTTNLPSGVPSRFSGSGSGTDYTLTISSLQPEDFATYYCQQSGGLPLTFGQGTKLEIK

fold increase of affinity against humanized 10E9C7G2 (带组氨酸标签的PD-L1抗原): 4.8 倍 (fold)
B5: 亲和力成熟的人源化10E9C7G2抗体(重链Seq ID 49, 轻链Seq ID 50) (antibody, V domains shown)
VH: B4 VH with S60D
VL: B4 VL

EC50 (PD-L1 on 293T-PD-L1细胞 [1]): 0.0392 µg/mL | EC50 (PD-L1-ECD-hFc [2]): 0.000684 µg/mL | IC50 (PD-L1 on 293T-PD-L1细胞 [3]): 0.0327 µg/mL | IC50 (PD-L1-ECD-hFc [4]): 0.147 µg/mL
B6: 10E9C7G2人源化完整抗体 (antibody, human IgG1, kappa, V domains shown)
VH: B4 VH with V29I, S30T, S60N
VL: DIQMTQSPSSLSASVGDRVTITCSASSSISSNSLQWYQQKPGKAPKLLIYRTTNLPSGVPSRFSGSGSGTDYTLTISSLQPEDFATYYCQQSSGLPLTFGQGTKLEIKR
notes: Humanized IgG1; expressed in 293 cells; also called hu10E9C7G2; 人源化的10E9C7G2抗体
